For data set [1], the target named is T1, hDBP4-hFc 3-6 protein coated on microparticles (Homo sapiens, UniProt P02774, S92A/S95A).
T1 construct: made in house
In words: Effect of displacement agent on microparticle DBP assay on the Abbott ARCHITECT instrument. Format: binding. The conditions noted are these: ANSA-present versus ANSA-free; FIG. 16. On the procedure:
For this study hDBP4-hFc 3-6 protein was coated on microparticles and binding was assessed on the Abbott ARCHITECT instrument to study the effect of adding a non-competitive displacement agent comprising 8-anilino-1-napthalenesulfonic acid ammonium salt (ANSA). ANSA separates any vitamin D metabolite in the sample from vitamin D binding protein to which the vitamin D metabolite is bound, was investigated. Microparticle diluent was used to remove ANSA in one condition (ANSA-free) but not the other (ANSA-present).

In data set [2] the target is T2, yeast surface displayed hDBP3 (Homo sapiens, UniProt P02774).
T2 construct: made in house; host or cells: yeast (surface display, pYD vector)
T2 sequence (P02774 17-227): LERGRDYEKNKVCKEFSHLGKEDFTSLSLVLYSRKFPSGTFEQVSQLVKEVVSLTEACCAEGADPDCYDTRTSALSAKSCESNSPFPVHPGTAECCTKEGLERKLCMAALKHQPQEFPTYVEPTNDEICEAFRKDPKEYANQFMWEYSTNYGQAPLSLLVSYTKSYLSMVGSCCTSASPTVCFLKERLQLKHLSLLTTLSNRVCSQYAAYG
The experiment in a line: Inhibition assay of free vitamin Ds on yeast surface displayed hDBP3. Format: binding. The conditions noted are these: for Ki: free vitamin D as inhibitor, yeast surface displayed hDBP3. On the procedure: Binding affinity of the hDBP3 truncate to vitamin D2, vitamin D3, 25-hydroxy vitamin D2, and 25-hydroxy vitamin D3 was determined.

Data set [3] is described as follows: Reactivity of hDBP-hFc fusion proteins to 25-hydroxy vitamin D3-3-biotin (ELISA). The conditions noted are these: fusion protein produced as a dimer by HEK 293F transient transfection. Format: binding. From the text:
The hDBP3 open reading frame (ORF) was amplified by PCR and linked to hFc, which contained a short hinge region with the first six amino acids deleted (to increase secretion), through SOEing (splicing by overlapping extension) PCR. The fusion protein ORF was cloned in pBOS vector (acquired from Abbott Bioresearch Center, Worcester, Mass.) through Nru I/Not I restriction digestion. Secretion of the fusion protein was directed by IgG heavy chain secretion signal peptide. The fusion protein was produced as a dimer by human embryonic kidney (HEK) 293F transient transfection. However, its reactivity to 25-hydroxy vitamin D3-3-biotin was weak.
The hDBP4 ORF was amplified from the pYD vector and linked to hFc through SOEing PCR. The fusion protein ORF was cloned in pBOS vector through Nru I/Not I restriction digestion. Secretion of the fusion protein was directed by IgG heavy chain secretion signal peptide. The fusion protein was produced as a dimer by HEK 293F transient transfection. Its reactivity to 25-hydroxy vitamin D3-3-biotin was confirmed by ELISA.
The hDBP3 mutant 3-6 was amplified from a pYD vector. The hFc with 56 amino acids from hDBP4 on its N-terminus was amplified from pBOS hDBP4-hFc. The two fragments were linked together through SOEing PCR. The resulting DNA vector was named pBOS hDBP4-hFc 3-6, which contained the two point mutations (S76A, S79A). […]

Data set [4] is described as follows: Storage stability of the protein by SDS-PAGE. The format is physicochemical. To be noted: protein expressed from HEK293 cells; room temperature, 2-8° C. and 37° C.; day 0, 3, 5, 7. On the procedure: The hDBP4-hFc 3-6 protein expressed from HEK293 cells was tested for stability. hDBP4-hFc 3-6 protein (about 100 μl of 0.5 mg/ml) was stored at room temperature, 2-8° C., and 37° C. A sample of about 20 μl of hDBP4-hFc 3-6 was taken at day 0, 3, 5, and 7, mixed with 20 μl reduced 2× Laemmli sample buffer, and stored at 2-8° C. until SDS-PAGE gel analysis.

A short description of data set [5]: Ligand titration of yeast surface displayed hDBP truncates. Format: binding, human. The conditions noted are these: for Binding to the ligand 25-hydroxy vitamin D3-3-biotin, in words: compared to full-length hDBP; for EC50: yeast surface displayed hDBP GC1S constructs, ligand 25-OH vitamin D3-3-biotin, read-out: Ag50 (antigen concentration at 50% of maximal binding signal). On the procedure: A total of five hDBP truncates and the full-length hDBP (Table I) were cloned into pYD yeast display vector (Invitrogen) by polymerase chain reaction (PCR) and Nco I/Xho I restriction digestion.
Binding affinity to 25-hydroxy vitamin D3-3-biotin of each construct was measured by ligand titration (Table II). The Ag50 is the value (antigen concentration) generated at 50% of maximal binding signal, thus translating into the highest affinity. This testing was performed similar to that detailed in Friguet et al., J. Immunolog. Methods, 77:305-319 (1985).

A short description of data set [6]: Screen of the yeast-displayed hDBP3 mutation library (MACS/FACS, equilibrium competition staining). Format: binding, human. The conditions noted are these: relative to yeast surface-displayed hDBP3. From the text:
The library was screened by one round of Magnetic Activated Cell Sorting (MACS) and two rounds of Fluorescence Activated Cell Sorting (FACS) with equilibrium competition staining. […] Mutant 3-6 contained two point mutations (S76A, S79A). Plasmid DNA of this clone was isolated.

Data set [7] addresses G-actin. To be noted: read-out: Binding affinity for G-actin; cited from earlier work.

What is called Ki is the equilibrium dissociation constant of an inhibitor or competing ligand from its target. A low value points to tighter binding.

T1 sequence (P02774 with tags, fused parts or gaps S92A/S95A): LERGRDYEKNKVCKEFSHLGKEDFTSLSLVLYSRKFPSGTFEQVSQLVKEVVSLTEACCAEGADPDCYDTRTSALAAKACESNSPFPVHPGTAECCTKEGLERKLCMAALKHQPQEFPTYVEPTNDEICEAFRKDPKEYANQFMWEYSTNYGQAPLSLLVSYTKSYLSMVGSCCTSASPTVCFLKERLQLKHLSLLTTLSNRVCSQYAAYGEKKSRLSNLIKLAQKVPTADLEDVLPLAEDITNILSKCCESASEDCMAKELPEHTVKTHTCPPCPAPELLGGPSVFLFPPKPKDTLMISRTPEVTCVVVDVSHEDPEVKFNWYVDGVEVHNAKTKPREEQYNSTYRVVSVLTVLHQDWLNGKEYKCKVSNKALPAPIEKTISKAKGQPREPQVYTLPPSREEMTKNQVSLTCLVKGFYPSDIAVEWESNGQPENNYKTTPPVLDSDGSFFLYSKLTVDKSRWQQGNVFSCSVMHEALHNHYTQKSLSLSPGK

On to `N.O=S(=O)(O)c1cccc2cccc(Nc3ccccc3)c12` [ANSA, 8-anilino-1-napthalenesulfonic acid ammonium salt], for which the “Effect on binding of vitamin D and tracer to DBP on the solid phase” value in data set [1] is “disturbed the binding of vitamin D from the sample and tracer to the DBP on the solid phase”.

Regarding `C=C1CC[C@H](O)C/C1=C/C=C1\CCC[C@]2(C)[C@@H]([C@H](C)CCCC(C)C)CC[C@@H]12` [Vitamin D3], in data set [2], the affinity, expressed as Ki, was 2970 nM.

For `C=C1CC[C@H](O)C/C1=C/C=C1\CCC[C@]2(C)[C@@H]([C@H](C)/C=C/[C@H](C)C(C)(C)O)CC[C@@H]12` [25-hydroxy Vitamin D2], the Ki in data set [2] came out at 6.4 nM.

Regarding “hDBP4-hFc 3-6: hDBP3 mutant 3-6 (S76A, S79A) plus 56 amino acids of hDBP4 fused to hFc, SEQ ID NO:10; dimer”, the “Reactivity to 25-hydroxy vitamin D3-3-biotin” value in data set [3] is given as “higher than wild-type fusion protein”. In data set [4], the “Degradation on storage (SDS-PAGE 4-20%)” value is “no degradation”.

Take `C=C1CC[C@H](O)C/C1=C/C=C1\CCC[C@]2(C)[C@@H]([C@H](C)CCCC(C)(C)O)CC[C@@H]12` [25-hydroxy Vitamin D3]: the Ki in data set [2] stood at 3.8 nM.

In turn, `C=C1CC[C@H](O)C/C1=C/C=C1\CCC[C@]2(C)[C@@H]([C@H](C)/C=C/[C@H](C)C(C)C)CC[C@@H]12` [Vitamin D2] gave a Ki in data set [2] of 1390 nM. Against the preceding molecule, the Ki is about 370-fold higher.

B1: hDBP3: hDBP truncate: domain I plus first α-helix of domain II (amino acids 1-211), SEQ ID NO:12 (protein, listed as Homo sapiens)
chain: LERGRDYEKNKVCKEFSHLGKEDFTSLSLVLYSRKFPSGTFEQVSQLVKEVVSLTEACCAEGADPDCYDTRTSALSAKSCESNSPFPVHPGTAECCTKEGLERKLCMAALKHQPQEFPTYVEPTNDEICEAFRKDPKEYANQFMWEYSTNYGQAPLSLLVSYTKSYLSMVGSCCTSASPTVCFLKERLQLKHLSLLTTLSNRVCSQYAAYG
Turning to B1, the “Binding preference among vitamin D2, vitamin D3, 25-hydroxy vitamin D2 and 25-hydroxy vitamin D3” value in data set [2] was “preferentially bound to hydroxylated vitamin D213”. Also, in data set [5], the “Binding to the ligand 25-hydroxy vitamin D3-3-biotin, in words” value is recorded as “bound to the ligand with similar affinity to the full-length hDBP” and the EC50 came to 83 nM.

B2: 3-6: hDBP3 clone with two point mutations (S76A, S79A), SEQ ID NO:2 (protein, listed as Homo sapiens)
chain: LERGRDYEKNKVCKEFSHLGKEDFTSLSLVLYSRKFPSGTFEQVSQLVKEVVSLTEACCAEGADPDCYDTRTSALAAKACESNSPFPVHPGTAECCTKEGLERKLCMAALKHQPQEFPTYVEPTNDEICEAFRKDPKEYANQFMWEYSTNYGQAPLSLLVSYTKSYLSMVGSCCTSASPTVCFLKERLQLKHLSLLTTLSNRVCSQYAAYG
For the molecule B2, the “Increase in affinity to 25-hydroxy vitamin D3-3-biotin” value in data set [6] is reported as “six-fold increase in affinity”.

B3: hDBP4: hDBP truncate: domain I plus about half of domain II, 56 amino acids longer than hDBP3, SEQ ID NO:14 (protein, listed as Homo sapiens)
chain: LERGRDYEKNKVCKEFSHLGKEDFTSLSLVLYSRKFPSGTFEQVSQLVKEVVSLTEACCAEGADPDCYDTRTSALSAKSCESNSPFPVHPGTAECCTKEGLERKLCMAALKHQPQEFPTYVEPTNDEICEAFRKDPKEYANQFMWEYSTNYGQAPLSLLVSYTKSYLSMVGSCCTSASPTVCFLKERLQLKHLSLLTTLSNRVCSQYAAYGEKKSRLSNLIKLAQKVPTADLEDVLPLAEDITNILSKCCESASEDCMAKELPEHTV
Consider B3, for which, in data set [5], the “Binding to the ligand 25-hydroxy vitamin D3-3-biotin, in words” value was “retains binding affinity” and the EC50 came out at 95 nM.

B4: DBP: Naturally occurring triple-domain, monomeric serum glycoprotein that binds and transports vitamin D (protein, UniProt P02774 17-474, looked up)
Vitamin D-binding protein: LERGRDYEKNKVCKEFSHLGKEDFTSLSLVLYSRKFPSGTFEQVSQLVKEVVSLTEACCAEGADPDCYDTRTSALSAKSCESNSPFPVHPGTAECCTKEGLERKLCMAALKHQPQEFPTYVEPTNDEICEAFRKDPKEYANQFMWEYSTNYGQAPLSLLVSYTKSYLSMVGSCCTSASPTVCFLKERLQLKHLSLLTTLSNRVCSQYAAYGEKKSRLSNLIKLAQKVPTADLEDVLPLAEDITNILSKCCESASEDCMAKELPEHTVKLCDNLSTKNSKFEDCCQEKTAMDVFVCTYFMPAAQLPELPDVELPTNKDVCDPGNTKVMDKYTFELSRRTHLPEVFLSKVLEPTLKSLGECCDVEDSTTCFNAKGPLLKKELSSFIDKGQELCADYSENTFTEYKKKLAERLKAKLPDATPTELAKLVNKHSDFASNCCSINSPPLYCDSEIDAELKNIL
Take B4: the Kd in data set [7] is roughly 10 nM.

B5: hDBP0 (Full-Length): Full-length human vitamin D binding protein, allele GC1S; domains I, II, III of 191, 187, 80 amino acids (protein, UniProt P02774 17-474, looked up)
Vitamin D-binding protein: LERGRDYEKNKVCKEFSHLGKEDFTSLSLVLYSRKFPSGTFEQVSQLVKEVVSLTEACCAEGADPDCYDTRTSALSAKSCESNSPFPVHPGTAECCTKEGLERKLCMAALKHQPQEFPTYVEPTNDEICEAFRKDPKEYANQFMWEYSTNYGQAPLSLLVSYTKSYLSMVGSCCTSASPTVCFLKERLQLKHLSLLTTLSNRVCSQYAAYGEKKSRLSNLIKLAQKVPTADLEDVLPLAEDITNILSKCCESASEDCMAKELPEHTVKLCDNLSTKNSKFEDCCQEKTAMDVFVCTYFMPAAQLPELPDVELPTNKDVCDPGNTKVMDKYTFELSRRTHLPEVFLSKVLEPTLKSLGECCDVEDSTTCFNAKGPLLKKELSSFIDKGQELCADYSENTFTEYKKKLAERLKAKLPDATPTELAKLVNKHSDFASNCCSINSPPLYCDSEIDAELKNIL
modifications: allele GC1S
notes: domains I, II, III of 191, 187, 80 amino acids
In the case of B5, the EC50 in data set [5] was found to be 65 nM.
